According to patent publication US20140274782A1, “AFFINITY REAGENTS AND METHODS FOR DETECTION, PURIFICATION, AND PROTEOMIC ANALYSIS OF METHYLATED PROTEINS” (The Board of Trustees of the Leland Stanford Junior …, priority 2013, published 2014):

T1: G9a and GLP (Homo sapiens, UniProt Q96KQ7+Q9H9B1)
T1 sequence (Q96KQ7 2-1210 limits assumed): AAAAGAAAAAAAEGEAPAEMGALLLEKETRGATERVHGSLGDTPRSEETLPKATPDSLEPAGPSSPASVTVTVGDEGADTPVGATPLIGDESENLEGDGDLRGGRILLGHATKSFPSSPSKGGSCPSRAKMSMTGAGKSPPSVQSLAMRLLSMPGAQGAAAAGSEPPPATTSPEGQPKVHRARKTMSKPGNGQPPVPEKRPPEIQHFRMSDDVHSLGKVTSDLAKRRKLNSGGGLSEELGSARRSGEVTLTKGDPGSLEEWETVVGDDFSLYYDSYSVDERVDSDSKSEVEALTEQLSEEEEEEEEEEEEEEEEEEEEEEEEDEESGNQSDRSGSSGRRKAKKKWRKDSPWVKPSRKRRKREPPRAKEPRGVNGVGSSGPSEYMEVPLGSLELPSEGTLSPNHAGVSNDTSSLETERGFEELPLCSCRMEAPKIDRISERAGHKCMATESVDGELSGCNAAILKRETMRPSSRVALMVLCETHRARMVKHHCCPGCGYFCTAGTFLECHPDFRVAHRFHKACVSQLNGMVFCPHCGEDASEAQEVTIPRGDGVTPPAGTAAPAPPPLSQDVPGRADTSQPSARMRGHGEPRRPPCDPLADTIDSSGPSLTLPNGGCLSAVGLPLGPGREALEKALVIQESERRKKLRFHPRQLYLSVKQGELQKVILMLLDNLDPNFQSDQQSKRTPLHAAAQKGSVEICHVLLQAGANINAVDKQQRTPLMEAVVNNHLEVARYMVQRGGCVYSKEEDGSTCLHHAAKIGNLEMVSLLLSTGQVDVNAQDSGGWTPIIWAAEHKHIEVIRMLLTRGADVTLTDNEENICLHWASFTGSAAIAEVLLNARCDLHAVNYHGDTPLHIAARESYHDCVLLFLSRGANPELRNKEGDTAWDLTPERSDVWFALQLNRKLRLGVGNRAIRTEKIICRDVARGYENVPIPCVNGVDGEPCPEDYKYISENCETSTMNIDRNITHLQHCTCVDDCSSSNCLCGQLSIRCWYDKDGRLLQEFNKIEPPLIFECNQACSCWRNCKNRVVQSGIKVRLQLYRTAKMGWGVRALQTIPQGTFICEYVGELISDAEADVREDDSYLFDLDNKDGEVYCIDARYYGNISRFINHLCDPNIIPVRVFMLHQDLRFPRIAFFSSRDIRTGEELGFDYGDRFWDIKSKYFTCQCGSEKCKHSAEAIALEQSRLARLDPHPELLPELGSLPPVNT
T1 sequence (Q9H9B1 2-1298 limits assumed): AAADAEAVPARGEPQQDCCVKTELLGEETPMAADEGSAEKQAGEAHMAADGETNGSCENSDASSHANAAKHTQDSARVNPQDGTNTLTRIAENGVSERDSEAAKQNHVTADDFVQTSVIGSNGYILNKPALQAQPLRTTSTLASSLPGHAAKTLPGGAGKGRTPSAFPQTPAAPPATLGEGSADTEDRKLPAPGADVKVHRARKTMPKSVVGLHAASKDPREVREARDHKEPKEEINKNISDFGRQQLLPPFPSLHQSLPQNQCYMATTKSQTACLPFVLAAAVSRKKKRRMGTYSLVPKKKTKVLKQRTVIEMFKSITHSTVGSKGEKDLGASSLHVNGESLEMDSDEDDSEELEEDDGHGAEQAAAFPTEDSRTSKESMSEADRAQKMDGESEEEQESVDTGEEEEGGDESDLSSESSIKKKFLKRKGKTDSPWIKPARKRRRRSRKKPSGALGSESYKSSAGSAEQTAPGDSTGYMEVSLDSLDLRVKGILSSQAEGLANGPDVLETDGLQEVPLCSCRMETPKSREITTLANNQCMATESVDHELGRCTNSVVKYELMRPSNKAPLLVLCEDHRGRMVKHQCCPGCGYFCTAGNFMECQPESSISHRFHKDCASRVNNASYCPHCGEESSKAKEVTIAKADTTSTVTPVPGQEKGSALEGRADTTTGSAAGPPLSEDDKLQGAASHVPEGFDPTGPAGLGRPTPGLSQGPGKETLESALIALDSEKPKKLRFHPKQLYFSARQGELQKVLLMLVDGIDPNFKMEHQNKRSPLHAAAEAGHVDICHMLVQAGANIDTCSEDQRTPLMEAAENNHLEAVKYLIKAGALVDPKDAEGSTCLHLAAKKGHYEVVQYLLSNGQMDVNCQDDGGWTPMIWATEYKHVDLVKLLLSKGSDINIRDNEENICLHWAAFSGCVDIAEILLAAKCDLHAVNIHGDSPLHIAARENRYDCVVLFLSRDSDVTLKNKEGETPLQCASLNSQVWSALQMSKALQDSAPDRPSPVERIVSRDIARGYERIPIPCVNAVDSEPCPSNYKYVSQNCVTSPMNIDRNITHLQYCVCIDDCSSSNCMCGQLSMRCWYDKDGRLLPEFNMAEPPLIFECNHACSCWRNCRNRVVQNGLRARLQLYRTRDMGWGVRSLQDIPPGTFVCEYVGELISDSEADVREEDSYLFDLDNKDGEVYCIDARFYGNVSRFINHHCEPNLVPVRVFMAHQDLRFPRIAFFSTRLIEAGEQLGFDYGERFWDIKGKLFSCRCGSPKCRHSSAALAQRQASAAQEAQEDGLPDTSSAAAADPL


What was measured:
3×MBT domain of L3MBTL1 = experiment: Triple SILAC pull-down, 3xMBT/3xMBTD355N ratio (cytoplasmic, nuclear and chromatin fractions of 293T cells); type: binding, human; conditions: SILAC ratio, pull-down 3xMBT vs 3xMBTD355N; for 3xMBT/D355N UNC Heavy: experiment with UNC0638 in heavy SILAC media; for 3xMBT/D355N UNC Light: experiment with UNC0638 in light SILAC media;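 as to all read-outs here: proteins quantified with MaxQuant, requiring at least two unique peptides and quantification in both label directions, normalized to the mean of proteins from a digested loading control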
G9a and GLP = target: T1, G9a and GLP; experiment: Triple SILAC pull-down after UNC0638 treatment of 293T cells, DMSO/UNC0638 ratio of protein captured by 3×MBT; type: cell-based; parameters: cells were treated for 24 hours with UNC0638 at 2.5 μM or DMSO vehicle control; endogenous in cells; host or cells: HEK 293T; conditions: for Relative to UNC0638 UNC Heavy / Relative to UNC0638 UNC Light: SILAC ratio DMSO/UNC0638 of protein pulled down with 3xMBT; for Relative to UNC0638 UNC Heavy: UNC0638 in heavy SILAC media; for Relative to UNC0638 UNC Light: UNC0638 in light SILAC media; for Relative to UNC0638 Average: average of UNC Light and UNC Heavy experiments;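 as to all read-outs here: mass spectrometry (Q-Exactive) SILAC quantitation, DMSO/UNC0638 ratio computed after subtracting 3×MBTD355N mutant pull-down background, only proteins with at least twofold 3×MBT over mutant signal considered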

Relative to UNC0638 UNC Heavy (G9a and GLP) [log base 2]	Relative to UNC0638 UNC Light (G9a and GLP) [log base 2]	Relative to UNC0638 Average (G9a and GLP) [log base 2]	Molecule	3xMBT/D355N UNC Heavy (3×MBT domain of L3MBTL1) [log base 2]	3xMBT/D355N UNC Light (3×MBT domain of L3MBTL1) [log base 2]
−0.86	1.33	0.24	NHP2L1: protein with methylated lysine identified in 3xMBT pull-down (protein, UniProt P55769 1-128, looked up) NHP2-like protein 1: MTEADVNPKAYPLADAHLTKKLLDLVQQSCNYKQLRKGANEATKTLNRGISEFIVMAADAEPLEIILHLPLLCEDKNVPYVFVRSKQALGRACGVSRPVIACSVTIKEGSQLKQQIQSIQQSIERLLV	1.56	3.46
0.31	0.00	0.16	GTF2I: protein with methylated lysine identified in 3xMBT pull-down (protein, UniProt P78347 2-998, looked up, methylated lysine, protein with methylated lysine identified in 3xMBT pull-down) General transcription factor …: AQVAMSTLPVEDEESSESRMVVTFLMSALESMCKELAKSKAEVACIAVYETDVFVVGTERGRAFVNTRKDFQKDFVKYCVEEEEKAAEMHKMKSTTQANRMSVDAVEIETLRKTVEDYFCFCYGKALGKSTVVPVPYEKMLRDQSAVVVQGLPEGVAFKHPENYDLATLKWILENKAGISFIIKRPFLEPKKHVGGRVMVTDADRSILSPGGSCGPIKVKTEPTEDSGISLEMAAVTVKEESEDPDYYQYNIQAGPSETDDVDEKQPLSKPLQGSHHSSEGNEGTEMEVPAEDSTQHVPSETSEDPEVEVTIEDDDYSPPSKRPKANELPQPPVPEPANAGKRKVREFNFEKWNARITDLRKQVEELFERKYAQAIKAKGPVTIPYPLFQSHVEDLYVEGLPEGIPFRRPSTYGIPRLERILLAKERIRFVIKKHELLNSTREDLQLDKPASGVKEEWYARITKLRKMVDQLFCKKFAEALGSTEAKAVPYQKFEAHPNDLYVEGLPENIPFRSPSWYGIPRLEKIIQVGNRIKFVIKRPELLTHSTTEVTQPRTNTPVKEDWNVRITKLRKQVEEIFNLKFAQALGLTEAVKVPYPVFESNPEFLYVEGLPEGIPFRSPTWFGIPRLERIVRGSNKIKFVVKKPELVISYLPPGMASKINTKALQSPKRPRSPGSNSKVPEIEVTVEGPNNNNPQTSAVRTPTQTNGSNVPFKPRGREFSFEAWNAKITDLKQKVENLFNEKCGEALGLKQAVKVPFALFESFPEDFYVEGLPEGVPFRRPSTFGIPRLEKILRNKAKIKFIIKKPEMFETAIKESTSSKSPPRKINSSPNVNTTASGVEDLNIIQVTIPDDDNERLSKVEKARQLREQVNDLFSRKFGEAIGMGFPVKVPYRKITINPGCVVVDGMPPGVSFKAPSYLEISSMRRILDSAEFIKFTVIRPFPGLVINNQLVDQSESEGPVIQESAEPSQLEVPATEEIKETDGSSQIKQEPDPTW	3.02	2.75
0.24	0.15	0.20	MCM4: protein with methylated lysine identified in 3xMBT pull-down (protein, UniProt P33991 2-863, looked up, methylated lysine, protein with methylated lysine identified in 3xMBT pull-down) DNA replication licensing …: SSPASTPSRRGSRRGRATPAQTPRSEDARSSPSQRRRGEDSTSTGELQPMPTSPGVDLQSPAAQDVLFSSPPQMHSSAIPLDFDVSSPLTYGTPSSRVEGTPRSGVRGTPVRQRPDLGSAQKGLQVDLQSDGAAAEDIVASEQSLGQKLVIWGTDVNVAACKENFQRFLQRFIDPLAKEEENVGIDITEPLYMQRLGEINVIGEPFLNVNCEHIKSFDKNLYRQLISYPQEVIPTFDMAVNEIFFDRYPDSILEHQIQVRPFNALKTKNMRNLNPEDIDQLITISGMVIRTSQLIPEMQEAFFQCQVCAHTTRVEMDRGRIAEPSVCGRCHTTHSMALIHNRSLFSDKQMIKLQESPEDMPAGQTPHTVILFAHNDLVDKVQPGDRVNVTGIYRAVPIRVNPRVSNVKSVYKTHIDVIHYRKTDAKRLHGLDEEAEQKLFSEKRVELLKELSRKPDIYERLASALAPSIYEHEDIKKGILLQLFGGTRKDFSHTGRGKFRAEINILLCGDPGTSKSQLLQYVYNLVPRGQYTSGKGSSAVGLTAYVMKDPETRQLVLQTGALVLSDNGICCIDEFDKMNESTRSVLHEVMEQQTLSIAKAGIICQLNARTSVLAAANPIESQWNPKKTTIENIQLPHTLLSRFDLIFLLLDPQDEAYDRRLAHHLVALYYQSEEQAEEELLDMAVLKDYIAYAHSTIMPRLSEEASQALIEAYVDMRKIGSSRGMVSAYPRQLESLIRLAEAHAKVRLSNKVEAIDVEEAKRLHREALKQSATDPRTGIVDISILTTGMSATSRKRKEELAEALKKLILSKGKTPALKYQQLFEDIRGQSDIAITKDMFEEALRALADDDFLTVTGKTVRLL	1.92	2.16
